Results reported in patent US9555076B2, “Neuregulin based methods and compositions for treating cardiovascular diseases” (Zensun (Shanghai) Science & Technology, Co., Ltd., priority 2002, dated 2017).
Where “and” joins values, the source holds several entries; their conditions need not be identical. Identical values can stand only once. Marks after values point to notes of the source that are not given here.

System: acute myocardial injury caused by viral (Coxsackie B3) infection in mice
Experiment: Survival of mice infected with Coxsackie B3 virus
Assay type: in vivo, BALB/C mice
Details: for relative survival rate: mice
Protocol: 0.2 ml of 100×TCID50 CVB3 provided by Zhong Shan Hospital affiliated to Fudan University was injected intra-abdominally and established myocarditis model. Within the following week, the mouse manifested pilo-erection, depilation, emaciation, dullness and death, about half of the tested animals died at the 8th day.
Intravenous injection of the testing drug into the tail vein was carried out the same day of intra-abdominal viral infection in mice, the injection was performed for consecutive 5 days, animal survival rate was monitored, after completion of the experiment, echocardiograph, myocardial pathologic examination, serum troponin determination were carried out.
The death status of model animals in various testing drug group was monitored.
• Normal mice control group, model group and testing drug group were set up; • Normal mice control group (n=10); • Model group (n=20): Prepared buffer solution was injected; • Testing drug group (n=20): […] courses with 20 animals assigned for each group; • Placebo control group (n=20): Intra-abdominal injection of non-CVB3 freeze-thaw cellular supernatant, 0.2 ml/animal. 10.2 Dosage Set Up, Preparation of Testing Drug, Route of Drug Administration, Times of Drug Administration, Concentration and Volume of the Testing Drug • rhNRG-1β was diluted with preparation buffer solution (10 mM PB, 0.2% human serum albumin, 5% mannitol to needed concentration; • Three drug administration groups were set up, intravenous injection for consecutive 3-day, 5-day and 7-day, drug volume for each dose was 0.2 ml/animal; • Drug administration of the model group was intravenous injection into the tail vein of mice, once every day (qd), for consecutive 7 days, drug volume for each dose was 0.2 ml/animal. 7.3 Method of the Experiment 7.3.1 Set Up of Acute Viral Myocariditis Animal Model in Mice

B1: rhNRG-1 β: Recombinant human neuregulin fragment of 61 amino acid (SEQ ID NO:4), 3 disulfide bonds, expressed in E. coli (protein, listed as Homo sapiens)
chain: SHLVKCAEKEKTFCVNGGECFMVKDLSNPSRYLCKCPNEFTGDRCQNYVMASFYKAEELYQ
modifications: disulfide (positions not given here)
What does the source list for B1?
Number of survival animals (mice n = 20, 30 μg/kg iv qd × 7, 7th day, (II)): 18; Number of survival animal (mice n = 20, 30 μg/kg iv qd × 7, killed, (I)): 17*; Number of survival animals (mice n = 20, 30 μg/kg iv qd × 7, killed, (II)): 18*; relative survival rate (5 μg/kg (so in the source) iv qd × 5, 1st day, (I)): 100%; relative survival rate (5 μg/kg (so in the source) iv qd × 5, 2nd day, (I)): 100%; relative survival rate (5 μg/kg (so in the source) iv qd × 5, 3rd day, (I)): 100%; relative survival rate (5 μg/kg (so in the source) iv qd × 5, 4th day, (I)): 95%; relative survival rate (5 μg/kg (so in the source) iv qd × 5, 5th day, (I)): 90%; relative survival rate (5 μg/kg (so in the source) iv qd × 5, 6th day, (I)): 75%; relative survival rate (5 μg/kg (so in the source) iv qd × 5, 7th day, (I)): 65%; relative survival rate (5 μg/kg (so in the source) iv qd × 5, killed, (I)): 50%; relative survival rate (7.5 μg/kg iv qd × 5, 1st day, (II)): 100%; relative survival rate (7.5 μg/kg iv qd × 5, 2nd day, (II)): 100%; relative survival rate (7.5 μg/kg iv qd × 5, 3rd day, (II)): 100%; relative survival rate (7.5 μg/kg iv qd × 5, 4th day, (II)): 90%; relative survival rate (7.5 μg/kg iv qd × 5, 5th day, (II)): 85%; relative survival rate (7.5 μg/kg iv qd × 5, 6th day, (II)): 70%; relative survival rate (7.5 μg/kg iv qd × 5, 7th day, (II)): 55%; relative survival rate (7.5 μg/kg iv qd × 5, killed, (II)): 50%; relative survival rate (15 μg/kg iv qd × 5, 1st day, (I)): 100%; relative survival rate (15 μg/kg iv qd × 5, 1st day, (II)): 100%; relative survival rate (15 μg/kg iv qd × 5, 2nd day, (I)): 100%; relative survival rate (15 μg/kg iv qd × 5, 2nd day, (II)): 100%; relative survival rate (15 μg/kg iv qd × 5, 3rd day, (I)): 100%; relative survival rate (15 μg/kg iv qd × 5, 3rd day, (II)): 100%; relative survival rate (15 μg/kg iv qd × 5, 4th day, (I)): 100%; relative survival rate (15 μg/kg iv qd × 5, 4th day, (II)): 95%; relative survival rate (15 μg/kg iv qd × 5, 5th day, (I)): 95%; relative survival rate (15 μg/kg iv qd × 5, 5th day, (II)): 90%; relative survival rate (15 μg/kg iv qd × 5, 6th day, (I)): 85%; relative survival rate (15 μg/kg iv qd × 5, 6th day, (II)): 80%; relative survival rate (15 μg/kg iv qd × 5, 7th day, (I)): 70%; relative survival rate (15 μg/kg iv qd × 5, 7th day, (II)): 65%; relative survival rate (15 μg/kg iv qd × 5, killed, (I)): 65%; relative survival rate (15 μg/kg iv qd × 5, killed, (II)): 65%; relative survival rate (30 μg/kg iv qd × 3, 1st day, (I)): 100%; relative survival rate (30 μg/kg iv qd × 3, 1st day, (II)): 100%; relative survival rate (30 μg/kg iv qd × 3, 2nd day, (I)): 100%; relative survival rate (30 μg/kg iv qd × 3, 2nd day, (II)): 100%; relative survival rate (30 μg/kg iv qd × 3, 3rd day, (I)): 100%; relative survival rate (30 μg/kg iv qd × 3, 3rd day, (II)): 100%; relative survival rate (30 μg/kg iv qd × 3, 4th day, (I)): 95%; relative survival rate (30 μg/kg iv qd × 3, 4th day, (II)): 100%; relative survival rate (30 μg/kg iv qd × 3, 5th day, (I)): 90%; relative survival rate (30 μg/kg iv qd × 3, 5th day, (II)): 95%; relative survival rate (30 μg/kg iv qd × 3, 6th day, (I)): 80%; relative survival rate (30 μg/kg iv qd × 3, 6th day, (II)): 80%; relative survival rate (30 μg/kg iv qd × 3, 7th day, (I)): 70%; relative survival rate (30 μg/kg iv qd × 3, 7th day, (II)): 75%; relative survival rate (30 μg/kg iv qd × 3, killed, (I)): 65%; relative survival rate (30 μg/kg iv qd × 3, killed, (II)): 75%; relative survival rate (30 μg/kg iv qd × 5, 1st day, (I)): 100%; relative survival rate (30 μg/kg iv qd × 5, 1st day, (II)): 100%; relative survival rate (30 μg/kg iv qd × 5, 1st day, Example 5 (I)): 100%; relative survival rate (30 μg/kg iv qd × 5, 1st day, Example 5 (II)): 100%; relative survival rate (30 μg/kg iv qd × 5, 2nd day, (I)): 100%; relative survival rate (30 μg/kg iv qd × 5, 2nd day, (II)): 100%; relative survival rate (30 μg/kg iv qd × 5, 2nd day, Example 5 (I)): 100%; relative survival rate (30 μg/kg iv qd × 5, 2nd day, Example 5 (II)): 100%; relative survival rate (30 μg/kg iv qd × 5, 3rd day, (I)): 100%; relative survival rate (30 μg/kg iv qd × 5, 3rd day, (II)): 100%; relative survival rate (30 μg/kg iv qd × 5, 3rd day, Example 5 (I)): 100%; relative survival rate (30 μg/kg iv qd × 5, 3rd day, Example 5 (II)): 100%; relative survival rate (30 μg/kg iv qd × 5, 4th day, (I)): 100%; relative survival rate (30 μg/kg iv qd × 5, 4th day, (II)): 100%; relative survival rate (30 μg/kg iv qd × 5, 4th day, Example 5 (I)): 100%; relative survival rate (30 μg/kg iv qd × 5, 4th day, Example 5 (II)): 100%; relative survival rate (30 μg/kg iv qd × 5, 5th day, (I)): 100%; relative survival rate (30 μg/kg iv qd × 5, 5th day, (II)): 95%; relative survival rate (30 μg/kg iv qd × 5, 5th day, Example 5 (I)): 95%; relative survival rate (30 μg/kg iv qd × 5, 5th day, Example 5 (II)): 95%; relative survival rate (30 μg/kg iv qd × 5, 6th day, (I)): 90%; relative survival rate (30 μg/kg iv qd × 5, 6th day, (II)): 90%; relative survival rate (30 μg/kg iv qd × 5, 6th day, Example 5 (I)): 95%; relative survival rate (30 μg/kg iv qd × 5, 6th day, Example 5 (II)): 95%; relative survival rate (30 μg/kg iv qd × 5, 7th day, (I)): 85%; relative survival rate (30 μg/kg iv qd × 5, 7th day, (II)): 85%; relative survival rate (30 μg/kg iv qd × 5, 7th day, Example 5 (I)): 90%; relative survival rate (30 μg/kg iv qd × 5, 7th day, Example 5 (II)): 90%; relative survival rate (30 μg/kg iv qd × 5, killed, (I)): 80%; relative survival rate (30 μg/kg iv qd × 5, killed, (II)): 85%; relative survival rate (30 μg/kg iv qd × 5, killed, Example 5 (I)): 85%; relative survival rate (30 μg/kg iv qd × 5, killed, Example 5 (II)): 80% and 90%; relative survival rate (30 μg/kg iv qd × 7, 1st day, (I)): 100%; relative survival rate (30 μg/kg iv qd × 7, 1st day, (II)): 100%; relative survival rate (30 μg/kg iv qd × 7, 2nd day, (I)): 100%; relative survival rate (30 μg/kg iv qd × 7, 2nd day, (II)): 100%; relative survival rate (30 μg/kg iv qd × 7, 3rd day, (I)): 100%; relative survival rate (30 μg/kg iv qd × 7, 4th day, (I)): 100%; relative survival rate (30 μg/kg iv qd × 7, 5th day, (I)): 100%; relative survival rate (30 μg/kg iv qd × 7, 6th day, (I)): 90%; relative survival rate (30 μg/kg iv qd × 7, 7th day, (I)): 90%; relative survival rate (30 μg/kg iv qd × 7, killed, (I)): 85%; relative survival rate (30 μg/kg iv qd × 7, killed, (II)): 80%
